{
  "source": "patent US6939949B2",
  "key": {"UvrA [1]": {"molecular_target": "UvrA", "test": "BIACORE sensor chip (NTA), β domain immobilised, UvrA in solution, in the presence of ATP"}, "UvrA [2]": {"molecular_target": "UvrA", "test": "BIACORE sensor chip (NTA), β domain immobilised, UvrA in solution, in the absence of ATP"}},
  "data": [
    {"substance": "TRCF-β (β domain of Thermus thermophilus HB8 transcription-repair coupling factor), His-tagged", "values": [
      {"measurement": "Kd", "setting": "UvrA [1]", "value": 500, "unit": "nM"},
      {"measurement": "Kd", "setting": "UvrA [2]", "value": 1300, "unit": "nM"}
    ]}
  ]
}
